# Measured values reported in publication PMC10917881, “Biochemical characterization of L-asparaginase isoforms from Rhizobium etli—the boosting effect of zinc” (Frontiers in Chemistry, 2024).
# What was measured:
# [1] = target: Rhizobium etli L-asparaginase ReAIV (constitutive, thermostable), wild type (Rhizobium etli); experiment: mass photometry; Refeyn One mass photometer; protein diluted to 20-50 nM; buffers 50 mM Tris-HCl pH 8.0 or 30 mM carbonate pH 9.0; absence or presence of Zn2+ and/or Mg2+; dimer to monomers
# [2] = target: Rhizobium etli L-asparaginase ReAV (inducible, thermolabile), wild type (Rhizobium etli); experiment: as above
stoichiometry N [1],stoichiometry N [2],Substance
2,–,"Rhizobium etli L-asparaginase ReAIV (constitutive, thermostable), wild type (enzyme)"
–,2,"Rhizobium etli L-asparaginase ReAV (inducible, thermolabile), wild type (enzyme)"
